Measured values as given in the supplement of paper PMC12764529.
± gives the half width of the 95% confidence interval.

Test: folding stability dG unfold from trypsin proteolysis; higher = more stable
Method in brief: (§1)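 Sequencing followed digestion of designed mini-proteins with trypsin and chymotrypsin, each at 11 concentrations in threefold dilutions together with a no-protease condition. The mini-proteins were under 80 residues, had no cysteine, sat in a PA-tagged cDNA display construct, and were kept only if AlphaFold2 dimer inter-PAE was above 15. From the counts, Bayesian fitting gave K50, and unfolding free energy was derived against a sequence-predicted unfolded-state K50 and a shared folded-state K50, per protease or combined.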

| Sequence | folding stability dG unfold |
| --- | --- |
| SAGGSAGGSATIWIPVSQIEEFLKQMPPDRIKEVKITYDPEDGWIPVKIPGGREIMIWVPKSAGGSAGGSAG [r3_291_TrROS] | 1.15 ± 0.029 kcal/mol |
| SAGGSAGGSAGEFEPVPVLTLPGLDDREVRVVLFKDPPLVLLEVEGAPYVLPAEELLRLASAGGSAGGSAGG [r11_370_TrMRF] | -0.19 ± 0.09 kcal/mol |
| SAGGSMIPLDNIDTIEIYENPKEGKYEAKIYFPSNGKVYVFPEGLLPEIIESTPKIKEIKVIPVPESAGGSA [r2_159_TrMRF] | -1.19 ± 0.71 kcal/mol |
| SAGGMVLVIVSDLKPGELNEIIEKLKKEGLEVKLFLPNGEEIDADPNIEDLPEDVPVVLLVRHPDKSSAGGS [r16_31_TrMRF] | 1.87 ± 0.079 kcal/mol |
| SAGGSAGGSKPIKTKATIPLPNGKTITADVEIVVLPDGNILLRVPSGKVILVPPNYPVTFEDASAGGSAGGS [r20_227_TrMRF] | 1.71 ± 0.025 kcal/mol |
| SAGGSAGGSAGMKTTYDPDTNKLSITLPNGTVATYYLGTGVIEIPDEVSSKEDIKVEKAASAGGSAGGSAGG [r17_174_JUSTAS] | 0.321 ± 0.11 kcal/mol |
| STITIEVETPEELEKALVEAEKLVEKGKDVKIEIFVRNENGETLKLTFDIKQLPDGIPVLEIEVEPVPPPSA [r9_1023_TrMRF] | 1.89 ± 0.1 kcal/mol |
| SAGGMKKYKVTVTIELTPPDGTTTTVTVTIDVDGDEKKALEEAEKVAEELKAAGYPVTIKEIKIYEESAGGS [r16_525_JUSTAS] | 3.8 ± 0.37 kcal/mol |
| SAGGGEIKIEIYRHPDTIMIRVKWDNPQQLKEEIIELFREENGFKPKEVSVQYNPNGYLYIMFEFKPKSAGG [r13_158_TrROS] | 2.59 ± 0.12 kcal/mol |
| SAGKPVKVTLNVVRLPGTGELVVFAEITYPDGSTAYAVARADLATGTVHVKLFDPNGKLLAELTVTLKPSAG [r14_524_TrMRF] | 3.64 ± 0.2 kcal/mol |
| SAGGSAETAIDLGPPNTTGVLEIEYFDENGNTRRATATFDPNPATISFNEPVEIPPNARIEIKPTSSAGGSA [r15_198_TrMRF] | -0.405 ± 0.21 kcal/mol |
| SAGGNMWMVRVKIDDGKTFMITSPEDIEEYLKKKLGPNYKIKEVEWHRMPPPNGPPMPMHEFEIEVPSAGGS [r16_408_TrROS] | 1.28 ± 0.062 kcal/mol |
| SAGGSAGGSAGGMKLVTLPDGKTYPFTSLEEFKEALLKETGKPVDLKNPVIYPVPPGLSSAGGSAGGSAGGS [r10_62_JUSTAS] | 0.401 ± 0.14 kcal/mol |
| SEEELENLPNVVRLELEVEIDGVRVRIETEFRLNEDGSLEVRTRIEVEPLPPPVEVVLDENGELVEVRVESA [r9_456_TrROS_Hall] | 2.81 ± 0.08 kcal/mol |
| SAGGSVEEIAERLAKELAPPDERVEVEVEEIVTDPVVGKIKEVKIKATIYPPDGTTRTVEYTIPYDELSAGG [r13_215_JUSTAS] | 0.407 ± 0.029 kcal/mol |
| SKGTFMAMMPLDEIKEIVENFAKQGWNIKIKPKSIQPFPFPHNDEDGEPEPYPMVMVEVEIKIVPPGDPPSA [r9_991_TrROS] | 1.33 ± 0.024 kcal/mol |
| SAGGSAMKITLKTKDGKEIEIEVEEKTNENGEKYLVLKIKDKKTNKEYTIVMSKEELEELLKKLLSSAGGSA [r15_92_TrROS_Hall] | 4.33 ± 0.21 kcal/mol |
| SAGGSAGGSAGGMKVLVIFEDNKIPRVVSEEELKKIPLPFKIIPLGPDPEEAKKILEKSSAGGSAGGSAGGS [r10_419_TrMRF] | 0.616 ± 0.13 kcal/mol |
| SAGGSAGGSAMNRYRILLLDPENGKPLVFELPGNMTPEEAKEAAEELAERFGVTVVAIEGFPSAGGSAGGSA [r18_322_TrMRF] | 3.18 ± 0.044 kcal/mol |
| SAGGSAGGMVLVLRFPLGEPALIALYDPETGEVHVYDPGTRELLGTFPLPIEDFLELGAEAEPVSAGGSAGG [r6_831_TrMRF] | 0.698 ± 0.051 kcal/mol |
| SMDLRLEVVSVEIEPEGRTLRIRVRVRLTALDPDDPDLPVPVLEVEVEIPIPLPEPLPLPVPNDPRALAASA [r9_357_TrMRF] | 1.63 ± 0.11 kcal/mol |

| Sequence | folding stability dG unfold |
| --- | --- |
| SIVIRLPDGKPLMIQLTMYYPPDNDKIEIPVEIYDGGKPRTFEHEIPPGDNKPVTFSLHIPLPPGAYIKISA [r9_973_TrROS] | 2.17 ± 0.12 kcal/mol |
| SAGGSAGGSNKLVKELAKDPNIKSIFVDTKNKKVYILTDNYLIVIDKNGKIEKIEPISPEKLKSAGGSAGGS [r12_895_TrMRF] | 0.446 ± 0.098 kcal/mol |
| SASKKPKLIIVDIVIKPEELKKMKPEELIEKILKELGIPKEKDVKIDLFLEPVELDGEEYYIIPALITNSAG [r14_334_TrMRF] | 1.11 ± 0.13 kcal/mol |
| SDKIIIPIYLPPGQDPDEIKNEIKWFARELWDKLGLPPNVKVEIEPRPYPEGYRRYMITIRLGGKEITIWSA [r9_776_TrROS] | 3.08 ± 0.1 kcal/mol |
| SAGGSAGGSANRKVIQFDSPEEILEAIDEAPEDDPVIIEWHDPDGGEPWWIKFDGDEIELIMSAGGSAGGSA [r18_407_TrROS] | -0.66 ± 0.23 kcal/mol |
| SAGGSAGGSALPTSPTYAVVKVPDKYYIVKTKVGDIIFIPDENGIPVPVKVEPFYPIAPEALSAGGSAGGSA [r18_244_TrMRF] | -0.297 ± 0.16 kcal/mol |
| SAGGSAGGSMYKVEIEIETSPEGGITIKVTIIPPDGSVIEGNLTPEEVAKRFGFPPPEILELLSAGGSAGGS [r20_235_JUSTAS] | 2.21 ± 0.049 kcal/mol |
| SAGGSAGGSAGLAEKLRDEIRESIKGPDGLEVPDDVELLSIDVPEDSAFVEVRFPADLPVSAGGSAGGSAGG [r17_519_TrMRF] | 0.436 ± 0.025 kcal/mol |
| SAGGMKIVSVEFDEETGEVYVKIEVPTPEELEALKKLPGEVRIVDKETGEVKVIKVKSIEELLELLKKSAGG [r13_604_TrROS_Hall] | 1.86 ± 0.086 kcal/mol |
| SAGGSAGGKEVKIEIYDSDDGILLVEVPDLDDAVEAVEKLGVELELVPYDPEKGRLLLRLRIPGSAGGSAGG [r6_510_TrMRF] | 0.26 ± 0.21 kcal/mol |
| SAGGSAGGSAGGEIKVEVVPVDGKLRVKVTLEDGEKIEIEVPENTTLDELKKLAEELAKKSAGGSAGGSAGG [r7_265_TrROS_Hall] | 1.55 ± 0.083 kcal/mol |
| SAGGSAGGMKATFHPGPGRFPLGDKEYEVDLIYVTVTLPNGVPRVFVLTPDEVEELLPDLELEGSAGGSAGG [r6_561_TrMRF] | 0.338 ± 0.07 kcal/mol |
| SAGGSSLTTPDGVKVEVYENPENNTIYVFEKKPDGTYTLKTLTKEGDKVTEVSTKTIKSNEKEKLLSAGGSA [r2_336_JUSTAS] | 0.966 ± 0.029 kcal/mol |
| SAGGMMYLIKVDTKEELKELAEAPGAKIVEEKEVNGKLYLLIEFPPGVTKIKIDVETRKIVEIEKLPSAGGS [r8_251_TrROS_Hall] | 0.759 ± 0.13 kcal/mol |
| SAGGSAGGSKNGEPPPVPTITMRFKDPDKIRKLNKKAGLPIEHDPGNGYITFPYRQIDKILKASAGGSAGGS [r12_325_TrROS] | 3.98 ± 0.8 kcal/mol |
| SAGGSSPASVRTSQTTVTDPATGRTRSVTVTTLPDGTTVSTFDSPGGSLVTTTTTPDGTTTTVTADSAGGSA [r2_109_JUSTAS] | -0.0855 ± 0.13 kcal/mol |
| SAGGPVETPGPHPLRPVPVVEPKKVVVTYPDLSPEEAAALAAELEAQGATTSFDPATGTLTVTLTGLSAGGS [r16_765_JUSTAS] | 1.12 ± 0.043 kcal/mol |
| SAGGSAGGSAGGITPEYVERARKEAQDQYPPGKEREIIIRNPDNGKEITIRYTPDKIEIMSAGGSAGGSAGG [r7_45_TrROS] | 0.0182 ± 0.12 kcal/mol |
| SAGGSAGGSAKIRLIFKTEEEARKAIEALLPEGAKAKIKVEKRKDGKKYVVVEIEFKEEEESAGGSAGGSAG [r3_87_TrROS_Hall] | 3.58 ± 0.24 kcal/mol |
| SAGGSGMTTTFSKEVSSKEEAEKIFKRGFPDLNAKVTKFDPKKGTVEIELTFPDGKKSKATAPIKKSAGGSA [r2_201_JUSTAS] | -0.569 ± 0.58 kcal/mol |
| SAGGSAGGSAGGSLKVEVTLDPETNELTVRTTLTLPPPPPPPPTTTTTTTTTLAPGETASAGGSAGGSAGGS [r10_86_TrROS_Hall] | -0.349 ± 0.43 kcal/mol |

Test: folding stability dG unfold from chymotrypsin proteolysis; higher = more stable
Method in brief: as §1

| Sequence | folding stability dG unfold |
| --- | --- |
| SAGGSAGGSATIWIPVSQIEEFLKQMPPDRIKEVKITYDPEDGWIPVKIPGGREIMIWVPKSAGGSAGGSAG [r3_291_TrROS] | 0.83 ± 0.054 kcal/mol |
| SAGGSAGGSAGEFEPVPVLTLPGLDDREVRVVLFKDPPLVLLEVEGAPYVLPAEELLRLASAGGSAGGSAGG [r11_370_TrMRF] | 1.26 ± 0.13 kcal/mol |
| SAGGSMIPLDNIDTIEIYENPKEGKYEAKIYFPSNGKVYVFPEGLLPEIIESTPKIKEIKVIPVPESAGGSA [r2_159_TrMRF] | 0.362 ± 0.26 kcal/mol |
| SAGGMVLVIVSDLKPGELNEIIEKLKKEGLEVKLFLPNGEEIDADPNIEDLPEDVPVVLLVRHPDKSSAGGS [r16_31_TrMRF] | 2.494 ± 0.017 kcal/mol |
| SAGGSAGGSKPIKTKATIPLPNGKTITADVEIVVLPDGNILLRVPSGKVILVPPNYPVTFEDASAGGSAGGS [r20_227_TrMRF] | 1.62 ± 0.021 kcal/mol |
| SAGGSAGGSAGMKTTYDPDTNKLSITLPNGTVATYYLGTGVIEIPDEVSSKEDIKVEKAASAGGSAGGSAGG [r17_174_JUSTAS] | 0.956 ± 0.17 kcal/mol |
| STITIEVETPEELEKALVEAEKLVEKGKDVKIEIFVRNENGETLKLTFDIKQLPDGIPVLEIEVEPVPPPSA [r9_1023_TrMRF] | 3.1 ± 0.041 kcal/mol |
| SAGGMKKYKVTVTIELTPPDGTTTTVTVTIDVDGDEKKALEEAEKVAEELKAAGYPVTIKEIKIYEESAGGS [r16_525_JUSTAS] | 4.51 ± 0.3 kcal/mol |
| SAGGGEIKIEIYRHPDTIMIRVKWDNPQQLKEEIIELFREENGFKPKEVSVQYNPNGYLYIMFEFKPKSAGG [r13_158_TrROS] | 4.12 ± 0.086 kcal/mol |
| SAGKPVKVTLNVVRLPGTGELVVFAEITYPDGSTAYAVARADLATGTVHVKLFDPNGKLLAELTVTLKPSAG [r14_524_TrMRF] | 4.62 ± 0.11 kcal/mol |
| SAGGSAETAIDLGPPNTTGVLEIEYFDENGNTRRATATFDPNPATISFNEPVEIPPNARIEIKPTSSAGGSA [r15_198_TrMRF] | 0.857 ± 0.064 kcal/mol |
| SAGGNMWMVRVKIDDGKTFMITSPEDIEEYLKKKLGPNYKIKEVEWHRMPPPNGPPMPMHEFEIEVPSAGGS [r16_408_TrROS] | 2.02 ± 0.1 kcal/mol |
| SAGGSAGGSAGGMKLVTLPDGKTYPFTSLEEFKEALLKETGKPVDLKNPVIYPVPPGLSSAGGSAGGSAGGS [r10_62_JUSTAS] | 0.959 ± 0.084 kcal/mol |
| SEEELENLPNVVRLELEVEIDGVRVRIETEFRLNEDGSLEVRTRIEVEPLPPPVEVVLDENGELVEVRVESA [r9_456_TrROS_Hall] | 3.42 ± 0.13 kcal/mol |
| SAGGSVEEIAERLAKELAPPDERVEVEVEEIVTDPVVGKIKEVKIKATIYPPDGTTRTVEYTIPYDELSAGG [r13_215_JUSTAS] | 0.704 ± 0.028 kcal/mol |
| SKGTFMAMMPLDEIKEIVENFAKQGWNIKIKPKSIQPFPFPHNDEDGEPEPYPMVMVEVEIKIVPPGDPPSA [r9_991_TrROS] | 1.89 ± 0.086 kcal/mol |
| SAGGSAMKITLKTKDGKEIEIEVEEKTNENGEKYLVLKIKDKKTNKEYTIVMSKEELEELLKKLLSSAGGSA [r15_92_TrROS_Hall] | 5.48 ± 0.11 kcal/mol |
| SAGGSAGGSAGGMKVLVIFEDNKIPRVVSEEELKKIPLPFKIIPLGPDPEEAKKILEKSSAGGSAGGSAGGS [r10_419_TrMRF] | 0.34 ± 0.39 kcal/mol |
| SAGGSAGGSAMNRYRILLLDPENGKPLVFELPGNMTPEEAKEAAEELAERFGVTVVAIEGFPSAGGSAGGSA [r18_322_TrMRF] | 4.362 ± 0.021 kcal/mol |
| SAGGSAGGMVLVLRFPLGEPALIALYDPETGEVHVYDPGTRELLGTFPLPIEDFLELGAEAEPVSAGGSAGG [r6_831_TrMRF] | 2.2 ± 0.094 kcal/mol |
| SMDLRLEVVSVEIEPEGRTLRIRVRVRLTALDPDDPDLPVPVLEVEVEIPIPLPEPLPLPVPNDPRALAASA [r9_357_TrMRF] | 2.75 ± 0.037 kcal/mol |
